According to the nanobody polyreactivity screen of Harvey et al. (2022):

Assay: yeast display, Sf9 membrane polyspecificity reagent, FACS + sequencing; frameworks hold sequencing errors
How it was run: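 Polyreactivity labels are assigned by the sorting gate from which each nanobody was recovered. The gates were low and high (top ~1%), set on anti-HA fluorescence for expression and streptavidin fluorescence for reagent binding. Before sorting, galactose-induced (36–48 hours) yeast display cells were stained for 1 hour at 4 °C with 10% biotinylated, detergent-solubilized Sf9 membrane reagent.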

Sequence	polyreactivity (PSR sort gate)
QVQLVESGGGIVQAGGSLRLSCAASGSIFKTNPMGWYRQAPGKERELVADISPSSGRTYYADSVKGRFTISRDNSKNTVYLQMNCLKPDDTAVYYCNRLSRRGYDYWGQGTQVTVSS	high polyreactivity
QVQLVESGGGIVQAGGSLRLSCAASGSIFQGNAMGWYRQAAGKERELVAAITYSGGSTYYADSVKGRFTISRDNAKNTVYLQMNSLKPEDTAVSYCNTTLRDSRQYVDRAPYTRYDYWGQGTQVTVSS	low polyreactivity
QVQLVESGGGIVQAGGSLRLSCAASGSIFSENTMGWYRQAPGKKRELVADITSGGSTNYADSVKGRFTISRDNAKNTVYLQMNSLKPEDTAVYYCNADWEAYKYNYWGQGTQVTVSS	low polyreactivity
QVQLVESGGGIVQAGGSLRLSCAASGSIFSRKVMGWYRQAPGKDRELVAAISWSGSSTSYADSVKGRFTISRDTAKNTVYLQMNSLKPEDTAVYYCNRYFGQGYWGQGTQVTVSS	high polyreactivity
QVQLVESGGGIVQAGGSLRLSCAASGSIFVHNDMGWYRQAPGKERELVARINTGGGTNYADSVKGRFTISRDNAKNTVYLEMNSLKPEDTAVYYCATDGDRYDHYFTDPEFDYWGQGTQVTVSS	low polyreactivity
QVQLVESGGGIVQAGGSLRLSCAASGSIVRGYAMGWYRQAPGKERELVAAITFSGGSTYADSVKGRFTISRDNAKNTVYLQMNSLKPEDTAVYYCAAKRTGHNWFTVYPYYSWGQGTQVTVSS	low polyreactivity
QVQLVESGGGIVQAGGSLRLSCAASGSIYRYNTMGWYRQEPRKERELVATITRRGGSTYYADSVQGRFTISRDNAKNTVYLQMNSLKPEDTAVYYCNADYFGGPYNYWGQGTQVTVSS	low polyreactivity
QVQLVESGGGIVQAGGSLRLSCAASGSTFAYYAIGWYRQAPGKEREFVATITWTGGSTNYADSETGRFTISRDNAKNSVYLQMNSLKPEATAVYYSAASFVISYDYWGQGTQVTVSS	high polyreactivity
QVQLVESGGGIVQAGGSLRLSCAASGSTFDVNAMGWYRQAPGKERELVAAISWNSGSTYYADSVKGRFTISRDNAKNTVYLQMNSLKPEDTAVYYCAATYGTGRRSKYGYWGQGTQVTVSS	high polyreactivity
QVQLVESGGGIVQAGGSLRLSCAASGSTFNYYAMGWYRQAPGKERELVAAISISGGSTYYADSVKGRFTISRDNAKNTVYLQMNSLKPEDTAVYYCAAVPYGFVGYDDYWGQGTQVTVSS	low polyreactivity
QVQLVESGGGIVQAGGSLRLSCAASGSTFRLYAMGWYRQAPGKERELVAAITWSVGSTYYADSVKGRFTISRDNAKNTVYLQMNSLKPEDTAVYYCAADRIGYYLRVSYRGKYDHWGQGTQVTVSS	low polyreactivity
QVQLVESGGGIVQAGGSLRLSCAASGSTFTANAMGWYRQAPGKERELVAAISRSGGSTYYADSVKGRFTISRDNAKNTVYLQMNSLKPEDTAVYYCAAESPLFSPPDGEDYWGQGTQVTVSS	low polyreactivity
QVQLVESGGGIVQAGGSLRLSCAASGSTFYDYAMGWYRQAPGKETELVAAITRGGSTYYADSVKGRFTISRDNAKNTVYLQMNILKPEDTAVFYCAKYLTCAAYLVPEYDYWGQGTQVSVSS	low polyreactivity
QVQLVESGGGIVQAGGSLRLSCAASGSTFYRYAMGWYRQAPGKERELVATITNSGGSTYYADSVKGRFTISRDNAKNTVYLQMNSLKPEDTAVYYCARVRSRNTGYYYWGQGTQVTVSS	high polyreactivity
QVQLVESGGGIVQAGGSLRLSCAASGSTLWGNVMRSYRQAPGKERELVAVISKTGGSTYYADSVKGRFTISRDNAKNTVYLQMNSLKPEDSAVYYCATRWPYRSDWGLGTQVTVSS	high polyreactivity
QVQLVESGGGIVQAGGSLRLSCAASGSTVVIYTMGWSRQAAGKEREFVASLSVSGGSTYYADSVKGRFTISRDYAKKTVYLQMNSLKPEDTAVYYCAAGYPYYYWTPYYYWGQGTQVTVSS	high polyreactivity

Sequence	polyreactivity (PSR sort gate)
QVQLVESGGGIVQAGGSLRLSCAASGTLGSYRQAPGNEWELVAAISQSGGSTYYADSVKGRFTISRDNAKNTVYLQMNSLKPEDTAVYYCAVDPRYGHPRRDYWGQGTQVTVSS	low polyreactivity
QVQLVESGGGIVQAGGSLRLSCAASGYTFGRYAMGWYRQAPGKERELVAGIRWRGGSTYYADSVKGRFTISRDNAKNTVYLQMNSLKPEDTAVYYCAAYGYPVYYNYHYDYWGQVTQVTVSS	high polyreactivity
QVQLVESGGGIVQAGGSLRLSCAASVFTFSDYTMGWYRQAPGKERELVAAINRGGNTYYADSVKGRFTISRDNAKNTVYLQMNSLKPEDTALYYCAAASYYAPYYWGQCTQVTVSS	high polyreactivity
QVQLVESGGGIVQAGGSLRLSCAATGFIFDQNAMAWYIQAPGKERELVAAISKRGGSTYYADSVKGRFTISRDNAKNTVYLQMNSLKREDTAVYYGATRSWGPYYYGYNHWGQGTQVTVSS	high polyreactivity
QVQLVESGGGIVQAGGSLRLSCAATGSIFGNYAMGWYRQAPGKERELVAAITSSGGTYYADSVKGRFTISRDNAKNTVYLQMNSLKPEDTAVYYCAARYYSYRHQSVKYGYWGQGTQVTVSS	high polyreactivity
QVQLVESGGGIVQAGGSLRLSCAGSGIIFWYYAMGWYRQAPGKERELVAAISQSGGRTYYADSVKGRFTISRDNAKNTVYLQMNSLKPEDTAVYYCAAGLVYRWSTTPRRLYYYWGQGTQVTVSS	high polyreactivity
QVQLVESGGGIVQAGGSLRLSCTASGFTFVYYAMGWYRQAPGKERELVASISRSGGSTYYADSVKGRFTISRDNAKNTVYLQMNSLKPEDTGVYYCNARYGRTALLDYWGQGTQVTVSS	high polyreactivity
QVQLVESGGGIVQAGGSLRLSSAASGRIFPYYAMGWYRQSPGKERELVAAINWRGTRTYADSVKWRFTISRDNAKYTVYFQMTSLNPEDTAVYYCAARTLYFSKYDYWGLGTQVTVSS	high polyreactivity
QVQLVESGGGIVQAGGSLRLSSAASGRIFRYYAMGWYRQAPGKERQLVAAISGSGGITYYADSVKGRFTISRDNAKNTVYLQLNRLKPEDTAVYYCAARYGIRPSVSGGYWGQGTQVTVSS	high polyreactivity
QVQLVESGGGIVQAGGSLRLTCAASGITFYKYDMGWYRQAPGKDRELVAAISFRGGNTNYADSVKGRFTISRDNAKNTVYLQMNILKPEDTAVYYCAAYSYTWFYEYGYWGQGTQVTVSS	high polyreactivity
QVQLVESGGGIVQAGGSLRLTCAASGRIFLANAMGWYRQAPGKERELVAAISLSGGRTYYADSLKGRFTISRDNAKNSVYFQRNSLKPEDTAVYYCAAEFYPIRYYGGYDYWGQGTQVTVSS	low polyreactivity
QVQLVESGGGIVQAGGSLRVSCAASGTMGWYRQAPGKERELVAAISQSGGSTYYADSVKGRFTISRDNAKNTVYLQMNSLKPEDTAVYYCAVDPGYGHPRRDYWGQGTQVTVSS	low polyreactivity
QVQLVESGGGIVQAGGSLSLSCAASGNIFTAYAMGWYRQAPGKERELVATITSSGDSTYYADSVKGRFTISRDNAKNTVYLQMNRLKPEDTSVYYFATADPSASNEVYEYDYWGQGTQVTVSS	low polyreactivity
QVQLVESGGGIVQAGGTLRLSCAASGIIFGSYAMGWYRQEPGKERELVAAINSSGGSTHYADSVKGRFTISRDNSKNTVYLQMNSLKPEDTAVYYCAADGYWRDYSGYWDYYYIYDYCGQGTQVTVSS	low polyreactivity
QVQLVESGGGIVQAGGTLRLSCAPYGSNYYAMACYRQAPGKDRDFVAAITTRGGGTYYADSVKGRFTISRDNAQNTVYLQMFSLKPVDTAVYVCAAEDYRPRTYVYRYRYYYWGQGTQVTVSS	high polyreactivity
QVQLVESGGGIVQAGRSLRLSCAASGRTFHGYAMGWYRQAPGKERELVAAITGTGGRTYYAESVKGRFTISRDKAKNTVYLQMNSLKPEDTAVYYCAARPWIKSGYWGQGTQVTVSS	high polyreactivity
